± gives the uncertainty stated by the source.

This data set in a line: self-splicing fitness, log relative to wild type (ln ratio); higher = more splicing; Tetrahymena group I intron in knt gene, E. coli kanamycin selection, DiMSum; sequences stand for … in CUCUCU…GGAGGGAAAAGUUAUCAGGCAUGCACCUGGUAGCUAGUCUUUAAACCAAUAGAUUGCAUCGGUUUAAAAGGCAAGACCGUCAAAUUGCGGGAAAGGGGUCAACAGCCGUUCAGUACCAAGUCUCAGGGGAAACUUUGAGAUGGCCUUGCAAAGGGUAUGGUAAUAAGCUGACGGACAUGGUCCUAACCACGCAGCCAAGUCCUAAGUCAACAGAUCUUCUGUUGAUAUGGAUGCAGUUCACAGACUAAAUGUCGGUCGGGGAAGAUGUAUUCUUCUCAUAAGAUAUAGUCGGACCUCUCCUUAAUGGGAGCUAGCGGAUGAAGUGAUGCAACACUGGAGCCGCUGGGAACUAAUUUGUAUGCGAAAGUAUAUUGAUUAGUUUUGGAGUACUCGUGGUCG
Summed up: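 Colonies from six replicate transformations of E. coli BL21(DE3) were pooled and amplicon-sequenced on an Illumina HiSeq 2500. The library placed an intron with all eight P1ex-region nucleotides randomised inside the knt kanamycin-resistance gene on pET-22b(+), and cells grew overnight at 37°C or 30°C on LB agar with or without 25 μg/mL kanamycin (plus 100 μg/mL carbenicillin, 50 μM IPTG, 0.2% rhamnose). Fitness is the DiMSum error-weighted combination of wild-type-normalised replicate fold changes, kanamycin versus none.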

Take CUUCAGCAAUAUUACGUAGU: the “self-splicing fitness (ln)” value reads like this: (30 °C) -4 ± 0.16; (37 °C) -2.5 ± 0.19.

As for CUUCAGCAAUAUUACGUCGU, the “self-splicing fitness (ln)” value is, setting by setting: (30 °C) -4.07 ± 0.14; (37 °C) -2.88 ± 0.12.

With CUUCAGCAAUAUUACGUGAC, the “self-splicing fitness (ln)” value is, setting by setting: (30 °C) -4.76 ± 0.46; (37 °C) -3.05 ± 0.37.

As to CUUCAGCAAUAUUACGUGCC, the “self-splicing fitness (ln)” value (30 °C) is -3.44 ± 0.31.

Take CUUCAGCAAUAUUACGUGCU: the “self-splicing fitness (ln)” value by setting is: (30 °C) -3.07 ± 0.12; (37 °C) -2.6 ± 0.13.

For the sequence CUUCAGCAAUAUUACGUGGU, the “self-splicing fitness (ln)” value reads like this: (30 °C) -3.25 ± 0.21; (37 °C) -2.22 ± 0.24.

Consider CUUCAGCAAUAUUACGUGUG, for which the “self-splicing fitness (ln)” value by setting is: (30 °C) -1.1 ± 0.061; (37 °C) -0.859 ± 0.076.

For the sequence CUUGAGCAAUAUUACGAGGG, the “self-splicing fitness (ln)” value is, setting by setting: (30 °C) -3.25 ± 0.3; (37 °C) -2.37 ± 0.42.

As for CUUGAGCAAUAUUACGAGUC, the “self-splicing fitness (ln)” value runs as follows: (30 °C) -4.15 ± 0.39; (37 °C) -1.33 ± 0.17.

As for CUUGAGCAAUAUUACGCACU, the “self-splicing fitness (ln)” value by setting is: (30 °C) -3.64 ± 0.39; (37 °C) -1.9 ± 0.44.

With CUUGAGCAAUAUUACGCGGU, the “self-splicing fitness (ln)” value runs as follows: (30 °C) -2.53 ± 0.33; (37 °C) -2.78 ± 0.48.

CUUGAGCAAUAUUACGCUGC: under “30 °C”, the “self-splicing fitness (ln)” value is -2.39 ± 0.49.

On to CUUGAGCAAUAUUACGCUUA, for which the “self-splicing fitness (ln)” value reads like this: (30 °C) -2.82 ± 0.29; (37 °C) -3.02 ± 0.37.

For CUUGAGCAAUAUUACGGAAG, the “self-splicing fitness (ln)” value runs as follows: (30 °C) -2.62 ± 0.25; (37 °C) -2.23 ± 0.28.

With CUUGAGCAAUAUUACGGCCA, the “self-splicing fitness (ln)” value was -1.69 ± 0.23 (30 °C) and -2.78 ± 0.36 (37 °C).

Consider CUUGAGCAAUAUUACGGGAG, for which the “self-splicing fitness (ln)” value was -3.95 ± 0.22 (30 °C) and -3.25 ± 0.26 (37 °C).

As for CUUGAGCAAUAUUACGGGCU, under “37 °C”, the “self-splicing fitness (ln)” value was -1.91 ± 0.25.

For CUUGAGCAAUAUUACGGUAG, the “self-splicing fitness (ln)” value is, setting by setting: (30 °C) -2.88 ± 0.11; (37 °C) -0.826 ± 0.094.

Take CUUGAGCAAUAUUACGGUAU: the “self-splicing fitness (ln)” value by setting is: (30 °C) -3.17 ± 0.2; (37 °C) -2.65 ± 0.26.

On to CUUGAGCAAUAUUACGUACG, for which the “self-splicing fitness (ln)” value is, setting by setting: (30 °C) -1.44 ± 0.097; (37 °C) -0.683 ± 0.1.

On to CUUGAGCAAUAUUACGUAGC, for which the “self-splicing fitness (ln)” value is -3.2 ± 0.2 (30 °C) and -2.4 ± 0.29 (37 °C).

As for CUUGAGCAAUAUUACGUAUU, for the setting “37 °C”, the “self-splicing fitness (ln)” value is -3.02 ± 0.37.

On to CUUGAGCAAUAUUACGUCAG, for which the “self-splicing fitness (ln)” value reads like this: (30 °C) -1.6 ± 0.15; (37 °C) -0.671 ± 0.17.

Take CUUGAGCAAUAUUACGUCGU: the “self-splicing fitness (ln)” value is -3.97 ± 0.18 (30 °C) and -2.75 ± 0.2 (37 °C).

Regarding CUUGAGCAAUAUUACGUUAA, the “self-splicing fitness (ln)” value reads like this: (30 °C) -2.47 ± 0.16; (37 °C) -2.6 ± 0.22.

With CUUGAGCAAUAUUACGUUUG, the “self-splicing fitness (ln)” value (30 °C) was -3.1 ± 0.16 and the “self-splicing fitness (ln)” value (37 °C) was -2.26 ± 0.18.

With CUUUAGCAAUAUUACGAAAG, the “self-splicing fitness (ln)” value runs as follows: (30 °C) -3.18 ± 0.23; (37 °C) -1.7 ± 0.28.

As to CUUUAGCAAUAUUACGAAAU, the “self-splicing fitness (ln)” value was -2.94 ± 0.36 (30 °C) and -1.99 ± 0.41 (37 °C).

For CUUUAGCAAUAUUACGAGAU, the “self-splicing fitness (ln)” value is -3.83 ± 0.23 (30 °C) and -2.57 ± 0.22 (37 °C).

CUUUAGCAAUAUUACGCACA: under “37 °C”, the “self-splicing fitness (ln)” value was -1.19 ± 0.35.

On to CUUUAGCAAUAUUACGCGAU, for which the “self-splicing fitness (ln)” value runs as follows: (30 °C) -3.05 ± 0.24; (37 °C) -0.751 ± 0.17.

For the sequence CUUUAGCAAUAUUACGCGCC, the “self-splicing fitness (ln)” value (30 °C) is -3.07 ± 0.37 and the “self-splicing fitness (ln)” value (37 °C) was -2.39 ± 0.45.

Consider CUUUAGCAAUAUUACGCUAA, for which the “self-splicing fitness (ln)” value (30 °C) was -4.31 ± 0.46 and the “self-splicing fitness (ln)” value (37 °C) was -3.2 ± 0.47.

Turning to CUUUAGCAAUAUUACGCUAG, the “self-splicing fitness (ln)” value is -3.45 ± 0.31 (30 °C) and -2.11 ± 0.27 (37 °C).

As to CUUUAGCAAUAUUACGGAAC, where the note is “37 °C”, the “self-splicing fitness (ln)” value was -1.93 ± 0.48.

As for CUUUAGCAAUAUUACGGAAG, the “self-splicing fitness (ln)” value was -3.17 ± 0.19 (30 °C) and -2.8 ± 0.23 (37 °C).

For the sequence CUUUAGCAAUAUUACGGAUG, the “self-splicing fitness (ln)” value by setting is: (30 °C) -0.333 ± 0.067; (37 °C) 0.313 ± 0.098.

CUUUAGCAAUAUUACGGCCG: the “self-splicing fitness (ln)” value by setting is: (30 °C) -0.432 ± 0.19; (37 °C) -0.348 ± 0.29.

Consider CUUUAGCAAUAUUACGGCGU, for which the “self-splicing fitness (ln)” value reads like this: (30 °C) -3.31 ± 0.47; (37 °C) -1.89 ± 0.26.

In the case of CUUUAGCAAUAUUACGGGAG, the “self-splicing fitness (ln)” value is, setting by setting: (30 °C) -2.89 ± 0.18; (37 °C) -2.57 ± 0.21.

CUUUAGCAAUAUUACGGGUU: the “self-splicing fitness (ln)” value by setting is: (30 °C) -3.22 ± 0.34; (37 °C) -0.807 ± 0.19.

CUUUAGCAAUAUUACGGUCU: the “self-splicing fitness (ln)” value was -3.25 ± 0.2 (30 °C) and -3.94 ± 0.36 (37 °C).

For CUUUAGCAAUAUUACGUACA, the “self-splicing fitness (ln)” value (30 °C) was -2.89 ± 0.22.

For CUUUAGCAAUAUUACGUAUU, the “self-splicing fitness (ln)” value by setting is: (30 °C) -3.07 ± 0.24; (37 °C) -1.34 ± 0.21.

On to CUUUAGCAAUAUUACGUCAA, for which the “self-splicing fitness (ln)” value runs as follows: (30 °C) -2.48 ± 0.35; (37 °C) -2.67 ± 0.38.

With CUUUAGCAAUAUUACGUCGC, the “self-splicing fitness (ln)” value (37 °C) is -1.58 ± 0.34.

Take CUUUAGCAAUAUUACGUGAU: the “self-splicing fitness (ln)” value (30 °C) is -2.8 ± 0.14 and the “self-splicing fitness (ln)” value (37 °C) was -1.05 ± 0.15.

In the case of GAAAAGCAAUAUUACGAAGC, the “self-splicing fitness (ln)” value runs as follows: (30 °C) -3.19 ± 0.22; (37 °C) -2.65 ± 0.28.

Take GAAAAGCAAUAUUACGACAC: the “self-splicing fitness (ln)” value is, setting by setting: (30 °C) -0.467 ± 0.14; (37 °C) -0.346 ± 0.17.

For GAAAAGCAAUAUUACGAGUC, the “self-splicing fitness (ln)” value was -2.16 ± 0.15 (30 °C) and -0.233 ± 0.1 (37 °C).

Take GAAAAGCAAUAUUACGAUUC: the “self-splicing fitness (ln)” value is -2.34 ± 0.17 (30 °C) and -1.42 ± 0.15 (37 °C).

Take GAAAAGCAAUAUUACGCAAG: the “self-splicing fitness (ln)” value is -2.02 ± 0.11 (30 °C) and -1.46 ± 0.14 (37 °C).

Regarding GAAAAGCAAUAUUACGCCAC, the “self-splicing fitness (ln)” value is -5.15 ± 0.38 (30 °C) and -2.7 ± 0.36 (37 °C).

As to GAAAAGCAAUAUUACGCGAA, the “self-splicing fitness (ln)” value (30 °C) was -2.75 ± 0.2 and the “self-splicing fitness (ln)” value (37 °C) is -1.13 ± 0.18.

For the sequence GAAAAGCAAUAUUACGCGAG, the “self-splicing fitness (ln)” value is, setting by setting: (30 °C) -1.64 ± 0.058; (37 °C) -0.497 ± 0.068.

For the sequence GAAAAGCAAUAUUACGCUAU, the “self-splicing fitness (ln)” value (30 °C) is -2.9 ± 0.21 and the “self-splicing fitness (ln)” value (37 °C) is -0.854 ± 0.2.

Regarding GAAAAGCAAUAUUACGCUUA, the “self-splicing fitness (ln)” value was -2.27 ± 0.14 (30 °C) and -1.39 ± 0.14 (37 °C).

Turning to GAAAAGCAAUAUUACGGAUG, the “self-splicing fitness (ln)” value is, setting by setting: (30 °C) -2.63 ± 0.1; (37 °C) -1.14 ± 0.1.

Turning to GAAAAGCAAUAUUACGGGCA, the “self-splicing fitness (ln)” value by setting is: (30 °C) -0.677 ± 0.086; (37 °C) -0.191 ± 0.093.

On to GAAAAGCAAUAUUACGGGUC, for which the “self-splicing fitness (ln)” value was -2.09 ± 0.14 (30 °C) and -2.58 ± 0.22 (37 °C).

With GAAAAGCAAUAUUACGGUAC, the “self-splicing fitness (ln)” value (30 °C) is -1.94 ± 0.079 and the “self-splicing fitness (ln)” value (37 °C) is -1.11 ± 0.09.

As to GAAAAGCAAUAUUACGUCGC, the “self-splicing fitness (ln)” value is, setting by setting: (30 °C) -1.38 ± 0.08; (37 °C) -0.835 ± 0.086.

(Values after the supplement of paper PMC7877785.)
